# In US20200048360A1 (TRACON PHARMACEUTICALS, published 2020):
# Positions count from the first letter of the chain named. Where two headings read alike, the source gives them in different places.
# T1: human CD105 (R&D Systems, Catalog No. 1097-EN) (human, UniProt P17813 26-586)
# T1 construct: Captured on the plate by mouse anti-human CD105 (Southern Biotechnologies 9811-01); also called endoglin
# T1 sequence (looked up): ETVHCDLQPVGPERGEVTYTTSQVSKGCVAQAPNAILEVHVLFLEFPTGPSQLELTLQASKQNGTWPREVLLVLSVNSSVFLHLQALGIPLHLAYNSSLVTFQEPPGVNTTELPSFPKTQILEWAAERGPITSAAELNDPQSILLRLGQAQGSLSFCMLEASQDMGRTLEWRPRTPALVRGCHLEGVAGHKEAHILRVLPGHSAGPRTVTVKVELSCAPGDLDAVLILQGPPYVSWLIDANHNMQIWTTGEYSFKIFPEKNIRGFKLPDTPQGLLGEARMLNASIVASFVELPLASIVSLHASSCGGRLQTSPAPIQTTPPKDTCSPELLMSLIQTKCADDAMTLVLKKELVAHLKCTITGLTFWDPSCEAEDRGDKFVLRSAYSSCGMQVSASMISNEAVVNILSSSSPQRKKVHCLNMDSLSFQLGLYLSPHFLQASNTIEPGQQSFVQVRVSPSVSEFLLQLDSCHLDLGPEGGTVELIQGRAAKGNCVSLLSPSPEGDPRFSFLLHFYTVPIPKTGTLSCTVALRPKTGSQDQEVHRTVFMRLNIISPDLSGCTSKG
# T2: recombinant endoglin (UniProt P17813 26-586, limits assumed)
# T2 sequence (looked up): T1 sequence (looked up)
# B1: chimeric anti-CD105 antibody TRC105 (antibody, V domains shown)
# VH: EVKLEESGGGLVQPGGSMKLSCAASGFTFSDAWMDWVRQSPEKGLEWVAEIRSKASNHATYYAESVKGRFTISRDDSKSSVYLQMNSLRAEDTGIYYCTRWRRFFDSWGQGTTLTVSS
# VL: QIVLSQSPAILSASPGEKVTMTCRASSSVSYMHWYQQKPGSSPKPWIYATSNLASGVPVRFSGSGSGTSYSLTISRVEAEDAATYYCQQWSSNPLTFGAGTKLELK
# notes: Chimeric monoclonal antibody with the murine SN6j variable regions; also called chimeric anti-endoglin antibody; c-SN6j
# B2: VK2AAVH1A2 (antibody, V domains shown)
# VH: EVQLVESGGGLVKPGGSLRLSCAASGFTFSDAWMDWVRQAPGKGLEWVGEARSKASNHATYYAESVKGRFTISRDDSKNTLYLQMNSLKTEDTAVYYCTRWRRFFDSWGQGTLVTVSS
# VL: DIQLTQSPSSLSASVGDRATITCRASSSVSYMHWYQQKPGKAPKPWAYATSNLASGVPSRFSGSGSGTDYTLTISSLQPEDFATYYCQQWSSNPLTFGGGTKVEIK
# notes: IgG1 heavy chain, kappa light chain
# B3: VK1AAVH1R (antibody, V domains shown)
# VH: B2 VH with A51I, K54R
# VL: B2 VL with L4M
# notes: as for B2
# B4: VK1AAVH1A2 (antibody, V domains shown)
# VH: B2 VH
# VL: B2 VL with L4M
# notes: IgG1 heavy chain, kappa light chain; also called humanized/deimmunized anti-endoglin antibody VK1AAVH1A2
# B5: VK1AAVH1Q (antibody, V domains shown)
# VH: B2 VH with A51I, K54Q
# VL: B2 VL with L4M
# notes: as for B2
# Columns and labels:
# [1] = molecular target: T1, human CD105 (R&D Systems, Catalog No. …); experiment: ELISA with OD450 falling against test antibody concentration (competition format of paragraph 712: biotinylated chimeric anti-CD105 on captured human CD105; the legend says only 'binding assay data')
# [2] = molecular target: T1, human CD105 (R&D Systems, Catalog No. …); experiment: as above; remark: listed apart in the source
# recombinant endoglin = molecular target: T2, recombinant endoglin; experiment: BIAcore SPR, antibody captured on protein A chip, recombinant endoglin as analyte, 25 C
# Experimental: Affinity of antibodies can be assessed using, for example, BIAcore analysis using standard protocols. Briefly, protein A is chemically coupled to a BIAcore CM5 chip, with the amount of protein A immobilized corresponding to ˜2000 R U. Subsequent steps are performed in a running buffer of 10 mM HEPES, 150 mM NaCl, 3 mM EDTA, 0.05% TWEEN, pH=7.4, at 25 degrees Celsius using a 10 Hz data collection rate. Anti-endoglin antibody (10 nM) is captured at a 10 μL/min flow rate by the immobilized protein A on the BIAcore chip: typically, capture times of 20, 40 and 80 seconds allow the capture of antibody densities corresponding to 130 RU, 330 RU and 570 RU, respectively. Start-up cycles are performed using running buffer at a flow rate of 40 μl/min, a contact time of 90 seconds and a dissociation time of 90 seconds. Sample cycles are performed using recombinant endoglin at concentrations ranging from 0 to 40 nM. Endoglin is passed over the BIAcore chip containing captured antibody at a flow rate of 40 μl/min with a contact time of 525 seconds and dissociation time of 2500 seconds. Eight sample cycles are typically performed at each antibody capture density Regeneration of the chip is accomplished using 10 mM glycine pH=1.7. Data analysis is performed using BIAcore T100 Evaluation Software v1.1 Signals generated using BIAcore chips with different captured antibody densities are compared and data generated in the absence of recombinant endoglin are used to adjust for the intraassay blank signal. For fitting of the data, the Rₘₐₓ is allowed to float to account for variation in capture levels of each antibody in each cycle. Data from each capture density is fitted simultaneously during analysis of each antibody. BIAcore data are presented in Table 2 for chimeric, humanized and humanized/deimmunized anti-endoglin antibodies, including kₐ (1/Ms), kd (1/s), KD (M) and […] (RU²).
# [3] = molecular target: T1, human CD105 (R&D Systems, Catalog No. …); experiment: ELISA with OD450 falling against test antibody concentration (competition format of paragraph 712: biotinylated chimeric anti-CD105 on captured human CD105; the legend says only 'binding assay data'); remark: listed apart in the source
# [4] = molecular target: T1, human CD105 (R&D Systems, Catalog No. …); experiment: as above; remark: listed apart in the source
# [5] = molecular target: T1, human CD105 (R&D Systems, Catalog No. …); experiment: as above; remark: listed apart in the source
# [6] = molecular target: T1, human CD105 (R&D Systems, Catalog No. …); experiment: as above; remark: listed apart in the source
# [7] = molecular target: T1, human CD105 (R&D Systems, Catalog No. …); experiment: as above; remark: listed apart in the source
# [8] = molecular target: T1, human CD105 (R&D Systems, Catalog No. …); experiment: as above; remark: listed apart in the source
# [9] = molecular target: T1, human CD105 (R&D Systems, Catalog No. …); experiment: competition ELISA on captured human CD105; competitor biotinylated chimeric anti-CD105
# Experimental: Antibodies were tested in a competition ELISA for binding to CD105 against biotinylated chimeric anti-CD105. Briefly, chimeric anti-CD105 was biotinylated using a micro-biotinylation kit (Sigma, Catalog No. BTAG-1KT) following the manufacturer's instructions. […] Binding of the biotinylated chimeric antibody was detected via streptavidin-HRP (Sigma, Catalog No. 55512) and TMB substrate (Sigma, Catalog No. T0440). OD450 nm values were measured on a Dynex MRX TCII plate reader. The results of the competition analysis are illustrated in FIGS. 7 and 8. […] To allow for comparisons within and between experiments, IC50 values of humanized or humanized/deimmunized variants were normalized against the reference antibody that was included on each plate to give a value for the fold difference. IC50 values are relative to chimeric anti-CD105 and are representative of three experiments. Summary ELISA data are presented in Table 1 and include antibody expression levels […]) as assayed in saturated static cultures.
binder,measurement,setting,value
B1,IC50 (read off the curve),[1],~0.2 µg/mL
same,IC50 (read off the curve),[2],~0.2 µg/mL
same,Kd,recombinant endoglin,0.6 nM
same,koff,recombinant endoglin,3.28e-05 s⁻¹
same,kon,recombinant endoglin,54700 M⁻¹ s⁻¹
same,IC50 (read off the curve),[3],~0.2 µg/mL
same,IC50 (read off the curve),[4],~0.2 µg/mL
same,IC50 (read off the curve),[5],~0.2 µg/mL
same,IC50 (read off the curve),[6],~0.2 µg/mL
same,IC50 (read off the curve),[7],~0.2 µg/mL
same,IC50 (read off the curve),[8],~0.2 µg/mL
B2,Relative IC50 (fold of chimeric anti-endoglin antibody),[9],0.99 fold relative to chimeric
same,IC50 (read off the curve),[7],~0.2 µg/mL
B3,Kd,recombinant endoglin,0.533 nM
same,koff,recombinant endoglin,3.41e-05 s⁻¹
same,kon,recombinant endoglin,64000 M⁻¹ s⁻¹
same,Relative IC50 (fold of chimeric anti-endoglin antibody),[9],1.05 fold relative to chimeric
same,IC50 (read off the curve),[6],~0.2 µg/mL
B4,IC50 (read off the curve),[1],~0.2 µg/mL
same,Kd,recombinant endoglin,0.706 nM
same,koff,recombinant endoglin,3.25e-05 s⁻¹
same,kon,recombinant endoglin,46000 M⁻¹ s⁻¹
same,Relative IC50 (fold of chimeric anti-endoglin antibody),[9],1.12 fold relative to chimeric
B5,Kd,recombinant endoglin,0.85 nM
same,koff,recombinant endoglin,3.03e-05 s⁻¹
same,kon,recombinant endoglin,35600 M⁻¹ s⁻¹
same,Relative IC50 (fold of chimeric anti-endoglin antibody),[9],1.3 fold relative to chimeric
same,IC50 (read off the curve),[8],~0.2 µg/mL
